In patent US7169559B2, “LDL receptor-related proteins 1 and 2 and treatment of bone or cartilage conditions” (Fonterra Corporate Research and Development Ltd., priority 2002, dated 2007):

How the values were obtained:
[1] = test system: cultured osteoblastic cells; experiment: osteoblast proliferation (mitogenic/osteogenic effect); type: cell-based, rat, mouse, and human
Procedure: (§1) Osteoblasts were isolated from 20-day old fetal rat calvariae as previously described (Cornish et al. (1999) Amer. J. Physiol-Endocrinol. Metab. 277:E779–E783). Briefly, calvariae were excised and the frontal and parietal bones, free of suture and periosteal tissue, were collected. After washing, the calvariae were treated twice with 3 mL of 1 mg/mL collagenase for 7 minutes at 37° C. After discarding the supernatants from these two digestions, the calvariae were treated a further twice with 3 mL of 2 mg/mL collagenase (30 mins, 37° C.). The supernatants of the latter two digestions were pooled, centrifuged, and the cells washed. Cells were grown to confluence and then subcultured into 24 well plates. Cells were growth arrested in minimum essential medium (MEM)/0.1% bovine serum albumin for 24 h before harvest.
(§2) The human osteoblast-like osteosarcoma cell line SaOS-2 was maintained in DMEM (GIBCO 12100-046) supplemented with 2.2 g/L NaHCO3, 10% FBS, and 10 ml/L penicillin-streptomycin (GIBCO 15140-122). Cells were plated in 75 cm^2 flasks and when confluent used for total RNA isolation or proliferation assays.

chondrocytes = experiment: chondrocyte mitogenesis; type: cell-based
osteoblast = osteoblast differentiation / mineralized bone nodules in long-term osteoblast cultures; type: cell-based
primary rat osteoblasts = experiment: apoptosis induced by serum withdrawal; type: cell-based
Procedure: as §1

osteoclastogenesis = experiment: murine bone marrow culture assay of osteoclastogenesis; type: cell-based
mature osteoclasts = experiment: bone-resorbing activity of mature osteoclasts; type: cell-based
[2] = unilateral local hemicalvarial injection in adult mice; type: in vivo
LRP-1 = LRP-1 (Homo sapiens, UniProt Q07954); experiment: binding of lactoferrin to LRP-1
LRP-2/megalin = LRP-2/megalin (Homo sapiens, UniProt P98164); experiment: binding of lactoferrin to LRP-2
[3] = test system: primary rat osteoblastic cells; experiment: endocytosis of lactoferrin observed under confocal microscopy; type: cell-based
Procedure: as §1

[4] = test system: p42/44 MAP kinase signaling pathway; experiment: p42/44 MAP kinase signaling / phosphorylation in osteoblastic cells; type: cell-based
SaOS-2 cells = experiment: proliferation in SaOS-2 cells; type: cell-based, human; details: only LRP-1 is expressed in SaOS-2 cells
Procedure: as §2

LRP-1-null fibroblasts = experiment: proliferation in LRP-1-null versus LRP-1+/+ fibroblasts; type: cell-based

Sequence of LRP-2/megalin (P98164 26-4655): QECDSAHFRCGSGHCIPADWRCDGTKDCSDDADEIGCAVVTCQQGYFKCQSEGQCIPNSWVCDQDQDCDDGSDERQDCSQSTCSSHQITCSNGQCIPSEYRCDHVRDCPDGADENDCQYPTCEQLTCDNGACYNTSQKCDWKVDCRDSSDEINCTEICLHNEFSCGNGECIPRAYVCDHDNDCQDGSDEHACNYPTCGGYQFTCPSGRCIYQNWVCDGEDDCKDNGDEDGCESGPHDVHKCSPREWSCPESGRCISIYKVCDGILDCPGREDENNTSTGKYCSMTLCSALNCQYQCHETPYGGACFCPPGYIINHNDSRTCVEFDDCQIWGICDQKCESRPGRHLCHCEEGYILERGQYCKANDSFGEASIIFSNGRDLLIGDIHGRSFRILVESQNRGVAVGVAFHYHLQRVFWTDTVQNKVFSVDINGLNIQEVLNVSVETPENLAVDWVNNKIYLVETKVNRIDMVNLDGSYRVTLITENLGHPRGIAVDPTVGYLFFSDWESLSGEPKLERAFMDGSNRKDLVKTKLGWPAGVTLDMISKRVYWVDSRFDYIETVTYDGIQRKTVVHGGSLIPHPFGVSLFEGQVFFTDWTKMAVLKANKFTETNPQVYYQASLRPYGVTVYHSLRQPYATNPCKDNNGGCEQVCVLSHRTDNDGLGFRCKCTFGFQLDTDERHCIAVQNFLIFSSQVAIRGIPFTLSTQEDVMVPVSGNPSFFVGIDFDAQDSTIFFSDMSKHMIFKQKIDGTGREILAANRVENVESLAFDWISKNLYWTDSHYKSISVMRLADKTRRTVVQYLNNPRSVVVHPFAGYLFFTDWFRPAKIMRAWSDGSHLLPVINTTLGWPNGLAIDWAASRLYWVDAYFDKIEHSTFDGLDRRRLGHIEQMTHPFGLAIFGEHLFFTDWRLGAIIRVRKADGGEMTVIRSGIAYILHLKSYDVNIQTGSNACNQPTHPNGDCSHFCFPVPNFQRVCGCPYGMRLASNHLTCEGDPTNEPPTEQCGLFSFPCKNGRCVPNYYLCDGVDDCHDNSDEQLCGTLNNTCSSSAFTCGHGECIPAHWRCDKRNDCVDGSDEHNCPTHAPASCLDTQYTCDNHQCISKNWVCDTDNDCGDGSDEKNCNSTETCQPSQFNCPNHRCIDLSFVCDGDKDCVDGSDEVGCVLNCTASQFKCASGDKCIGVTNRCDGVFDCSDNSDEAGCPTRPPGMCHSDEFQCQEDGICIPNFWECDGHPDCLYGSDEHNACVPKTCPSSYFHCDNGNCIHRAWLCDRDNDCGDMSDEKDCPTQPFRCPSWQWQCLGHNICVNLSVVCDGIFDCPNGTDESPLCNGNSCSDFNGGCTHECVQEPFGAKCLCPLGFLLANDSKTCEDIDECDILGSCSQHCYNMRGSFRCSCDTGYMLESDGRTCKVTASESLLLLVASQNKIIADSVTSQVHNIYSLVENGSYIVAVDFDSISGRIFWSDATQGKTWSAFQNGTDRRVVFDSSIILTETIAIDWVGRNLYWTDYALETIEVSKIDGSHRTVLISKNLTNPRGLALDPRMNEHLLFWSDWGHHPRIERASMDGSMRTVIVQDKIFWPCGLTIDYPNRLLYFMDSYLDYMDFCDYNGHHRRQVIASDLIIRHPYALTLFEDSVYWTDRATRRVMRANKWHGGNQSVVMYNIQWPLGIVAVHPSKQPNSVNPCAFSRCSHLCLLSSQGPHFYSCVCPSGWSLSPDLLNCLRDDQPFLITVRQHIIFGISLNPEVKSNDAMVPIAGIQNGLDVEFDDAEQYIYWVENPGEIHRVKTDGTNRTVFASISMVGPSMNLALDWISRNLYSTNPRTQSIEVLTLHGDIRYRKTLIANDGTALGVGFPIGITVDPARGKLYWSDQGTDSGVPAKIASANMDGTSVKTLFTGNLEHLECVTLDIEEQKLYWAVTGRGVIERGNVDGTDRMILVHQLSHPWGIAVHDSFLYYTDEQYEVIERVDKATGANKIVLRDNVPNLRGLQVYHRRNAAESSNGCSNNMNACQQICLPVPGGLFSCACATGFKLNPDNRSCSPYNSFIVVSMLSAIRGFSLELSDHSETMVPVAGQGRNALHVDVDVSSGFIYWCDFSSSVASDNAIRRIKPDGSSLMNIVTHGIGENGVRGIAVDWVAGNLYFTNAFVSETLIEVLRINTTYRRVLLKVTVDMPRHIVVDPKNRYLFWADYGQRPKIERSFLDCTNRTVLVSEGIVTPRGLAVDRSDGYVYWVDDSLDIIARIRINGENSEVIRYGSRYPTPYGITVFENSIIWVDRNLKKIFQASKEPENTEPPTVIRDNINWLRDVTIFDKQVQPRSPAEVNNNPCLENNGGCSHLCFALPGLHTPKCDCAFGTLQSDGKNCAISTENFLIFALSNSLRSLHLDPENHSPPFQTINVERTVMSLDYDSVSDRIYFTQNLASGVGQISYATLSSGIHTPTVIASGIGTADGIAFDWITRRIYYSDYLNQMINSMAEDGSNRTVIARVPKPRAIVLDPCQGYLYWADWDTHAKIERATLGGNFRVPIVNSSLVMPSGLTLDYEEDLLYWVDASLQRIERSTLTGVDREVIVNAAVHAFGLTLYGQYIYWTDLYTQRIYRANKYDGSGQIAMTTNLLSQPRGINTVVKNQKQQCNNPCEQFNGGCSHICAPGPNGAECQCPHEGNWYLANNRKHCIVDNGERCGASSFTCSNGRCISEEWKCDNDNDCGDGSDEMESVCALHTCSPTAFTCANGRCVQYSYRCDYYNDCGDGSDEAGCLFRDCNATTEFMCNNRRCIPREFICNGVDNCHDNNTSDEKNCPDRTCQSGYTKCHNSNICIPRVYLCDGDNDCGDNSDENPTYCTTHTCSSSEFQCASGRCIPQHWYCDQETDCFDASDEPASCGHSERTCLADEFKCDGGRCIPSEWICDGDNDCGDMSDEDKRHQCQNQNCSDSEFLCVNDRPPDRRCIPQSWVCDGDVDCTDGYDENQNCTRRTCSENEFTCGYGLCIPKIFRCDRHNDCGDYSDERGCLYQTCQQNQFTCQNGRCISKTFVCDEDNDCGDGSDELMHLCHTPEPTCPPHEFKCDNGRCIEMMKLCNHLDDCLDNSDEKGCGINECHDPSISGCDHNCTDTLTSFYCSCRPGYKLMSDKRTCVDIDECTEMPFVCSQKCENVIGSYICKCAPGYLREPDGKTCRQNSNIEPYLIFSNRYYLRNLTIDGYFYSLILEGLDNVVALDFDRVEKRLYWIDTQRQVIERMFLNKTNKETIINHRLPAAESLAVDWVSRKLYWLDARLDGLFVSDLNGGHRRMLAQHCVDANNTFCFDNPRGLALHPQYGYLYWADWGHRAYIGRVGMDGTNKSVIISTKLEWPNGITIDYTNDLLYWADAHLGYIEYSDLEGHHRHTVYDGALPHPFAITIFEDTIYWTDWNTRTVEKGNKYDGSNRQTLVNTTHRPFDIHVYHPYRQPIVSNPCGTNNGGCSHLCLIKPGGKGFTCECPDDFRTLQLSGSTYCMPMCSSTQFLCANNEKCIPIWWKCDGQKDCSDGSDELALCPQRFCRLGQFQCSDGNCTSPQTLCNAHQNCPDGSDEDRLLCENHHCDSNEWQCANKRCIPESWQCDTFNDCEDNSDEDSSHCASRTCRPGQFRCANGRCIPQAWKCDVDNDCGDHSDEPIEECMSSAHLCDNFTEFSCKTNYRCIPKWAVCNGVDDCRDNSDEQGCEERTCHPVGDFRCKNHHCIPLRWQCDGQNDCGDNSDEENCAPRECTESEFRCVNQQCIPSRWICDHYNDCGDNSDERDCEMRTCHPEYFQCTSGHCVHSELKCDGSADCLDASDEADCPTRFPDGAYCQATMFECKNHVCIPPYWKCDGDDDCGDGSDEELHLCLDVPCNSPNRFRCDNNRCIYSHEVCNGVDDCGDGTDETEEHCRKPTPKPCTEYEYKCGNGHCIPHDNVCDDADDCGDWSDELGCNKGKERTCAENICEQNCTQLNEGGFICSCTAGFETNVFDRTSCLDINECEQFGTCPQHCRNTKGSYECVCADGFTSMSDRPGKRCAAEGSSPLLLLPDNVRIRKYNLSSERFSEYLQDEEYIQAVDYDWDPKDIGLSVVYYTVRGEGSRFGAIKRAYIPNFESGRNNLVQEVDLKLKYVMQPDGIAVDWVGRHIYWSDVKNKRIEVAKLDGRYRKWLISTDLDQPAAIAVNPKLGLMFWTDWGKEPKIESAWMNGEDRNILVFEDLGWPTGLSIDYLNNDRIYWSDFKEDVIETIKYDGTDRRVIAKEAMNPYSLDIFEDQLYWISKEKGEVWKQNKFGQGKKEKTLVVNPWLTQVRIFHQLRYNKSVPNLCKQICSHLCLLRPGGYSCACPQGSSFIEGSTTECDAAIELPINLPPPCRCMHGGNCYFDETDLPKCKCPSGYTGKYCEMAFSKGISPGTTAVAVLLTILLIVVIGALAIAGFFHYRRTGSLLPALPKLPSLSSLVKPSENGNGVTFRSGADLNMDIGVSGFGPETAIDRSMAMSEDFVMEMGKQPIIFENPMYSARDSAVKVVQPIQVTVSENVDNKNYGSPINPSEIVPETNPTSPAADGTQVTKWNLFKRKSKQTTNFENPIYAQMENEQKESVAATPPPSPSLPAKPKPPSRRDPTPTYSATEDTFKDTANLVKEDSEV

| binding to LRP-1 (LRP-1) | binding to LRP-2/megalin (LRP-2/megalin) | Molecule | proliferation of cultured osteoblastic cells ([1]; cells of rat, mouse, and human origin) | mitogenic to chondrocytes (chondrocytes) | osteoblast differentiation (osteoblast) | number of mineralized bone nodules (osteoblast; long-term osteoblast cultures) | apoptosis induced by serum withdrawal (primary rat osteoblasts) | osteoclastogenesis (osteoclastogenesis) | bone-resorbing activity of mature osteoclasts (mature osteoclasts) | bone area [2] | indices of bone formation [2] | endocytosis by primary rat osteoblastic cells [3] | activation of p42/44 MAP kinase signaling pathway ([4]; osteoblastic cells) | proliferation in SaOS-2 cells (SaOS-2 cells) | proliferation in LRP-1-null fibroblasts compared with LRP-1+/+ cells (LRP-1-null fibroblasts) | effect on lactoferrin-induced osteoblast proliferation ([1]; in the presence of lactoferrin) | effect on endocytosis of lactoferrin ([3]; primary rat osteoblastic cells) | effect on lactoferrin-induced MAP kinase phosphorylation ([4]; in the presence of lactoferrin) |
| --- | --- | --- | --- | --- | --- | --- | --- | --- | --- | --- | --- | --- | --- | --- | --- | --- | --- | --- |
| has been found to bind | has been found to bind | Lactoferrin: an 80 kDa glycoprotein present in milk and epithelial secretions; osteoblast growth factor present in fractionated bovine milk (protein, UniProt P24627 20-708, looked up) Lactotransferrin: APRKNVRWCTISQPEWFKCRRWQWRMKKLGAPSITCVRRAFALECIRAIAEKKADAVTLDGGMVFEAGRDPYKLRPVAAEIYGTKESPQTHYYAVAVVKKGSNFQLDQLQGRKSCHTGLGRSAGWIIPMGILRPYLSWTESLEPLQGAVAKFFSASCVPCIDRQAYPNLCQLCKGEGENQCACSSREPYFGYSGAFKCLQDGAGDVAFVKETTVFENLPEKADRDQYELLCLNNSRAPVDAFKECHLAQVPSHAVVARSVDGKEDLIWKLLSKAQEKFGKNKSRSFQLFGSPPGQRDLLFKDSALGFLRIPSKVDSALYLGSRYLTTLKNLRETAEEVKARYTRVVWCAVGPEEQKKCQQWSQQSGQNVTCATASTTDDCIVLVLKGEADALNLDGGYIYTAGKCGLVPVLAENRKSSKHSSLDCVLRPTEGYLAVAVVKKANEGLTWNSLKDKKSCHTAVDRTAGWNIPMGLIVNQTGSCAFDEFFSQSCAPGADPKSRLCALCAGDDQGLDKCVPNSKEKYYGYTGAFRCLAEDVGDVAFVKNDTVWENTNGESTADWAKNLNREDFRLLCLDGTRKPVTEAQSCHLAVAPNHAVVSRSDRAAHVKQVLLHQQALFGKNGKNCPDKFCLFKSETKNLLFNDNTECLAKLGGRPTYEEYLGTEYVTAIANLKKCSTSPLLEACAFLTR | stimulates proliferation of cultured osteoblastic cells of rat, mouse, and human origin potently and in a dose-dependent manner | mitogenic to chondrocytes | capable of inducing osteoblast differentiation | significantly increase | inhibits apoptosis | strongly inhibits osteoclastogenesis | does not affect | dose-dependent and substantial increases | dose-dependent and substantial increases | is endocytosed | activates the p42/44 MAP kinase signaling pathway | induces proliferation | substantially less marked |  |  |  |
|  |  | RAP: the LRP-1/2-specific inhibitor, receptor-associated protein (RAP) (protein, UniProt P30533 35-357, looked up) Alpha-2-macroglobulin …: YSREKNQPKPSPKRESGEEFRMEKLNQLWEKAQRLHLPPVRLAELHADLKIQERDELAWKKLKLDGLDEDGEKEARLIRNLNVILAKYGLDGKKDARQVTSNSLSGTQEDGLDDPRLEKLWHKAKTSGKFSGEELDKLWREFLHHKEKVHEYNVLLETLSRTEEIHENVISPSDLSDIKGSVLHSRHTELKEKLRSINQGLDRLRRVSHQGYSTEAEFEEPRVIDLWDLAQSANLTDKELEAFREELKHFEAKIEKHNHYQKQLEIAHEKLRHAESVGDGERVSRSREKHALLEGRTKELGYTVKKHLQDLSGRISRARHNEL |  |  |  |  |  |  |  |  |  |  |  |  |  | blocked | abrogates this process | blocked |
